Here are results for twelve substances from US20100041597A1, “PEPTIDES TARGETED TO PROTEIN KINASE C ISOFORMS AND USES THEREOF” (priority 2005, published 2010).

One assay has as its target PKC-α (Homo sapiens, UniProt P17252). Put plainly: Competitive binding assay using cell extracts (Western blot). The arrangement: key to Affinity for PKC isoform α: —: no detectable affinity; Low to very low affinity at 10X or 20X or both PRE concentrations in at least one cell line in the cell extract assay; Low affinity in purified isoform assay.; Moderate affinity at 10X or 20X or both PRE concentrations in at least one cell line in the cell extract assay.; High affinity at 10X or 20X or both PRE concentrations in at least one cell line in the cell extract assay; High affinity in purified isoform assay. The conditions noted are these: for Affinity for PKC isoform α: Cell extract, PRE at 10X, 20X antibody concentration, Table 20. As to the method: Binding efficiency and specificity of the peptides PRE 2, 3, 4, 5, 6, 7, 8, 9, 10, 11, 12 and 13 (see Table 3) was also tested using cytoplasmic extracts from different cell lines expressing appropriate PKC isoforms as described for Example 1. Briefly, the protein cytoplasmic extracts were separated by electrophoresis and transferred onto nitrocellulose membranes by standard Western blotting procedures. The bands on the Western blots were detected with matching primary antibodies and alkaline phosphatase conjugated secondary antibody. The bands were then scanned and the relative density measurements obtained.
This procedure to assess the binding characteristics of the PREs is based on competition binding of the PRE with the primary anti-isoform PKC specific antibodies. The lower the measured band density, the greater the binding of the PRE to the PKC isoform. The PREs were added at 10 and 20 times (10×, 20×) the primary antibody concentration, according to classical competition between antigenic peptide and primary antibody. The following cell lines (obtained from the ATCC) were used: H661—NCI human lung carcinoma NSCLC; MDAMB231—human highly invasive breast cancer cell line from pleural effusion; LS180—human colon adenocarcinoma; LnCAP—human prostate adenocarcinoma; CCD16Lu—human lung fibroblasts; Du145—human prostate carcinoma brain metastasis, and T24—human bladder carcinoma.
In these cases, the 20× band density figures relative to control and 10× values were reliable.
In general terms: In western blotting, separated proteins are transferred to a membrane and probed.

Another assay has as its target PKC-δ (Homo sapiens, UniProt Q05655). Put plainly: ELISA-based competitive binding assay with purified PKC isoform. To be noted: for inhibition at 50 µM / inhibition at 100 µM / inhibition at 200 µM / calculated binding capacity (100-% n) after subtraction of the DMSO apparent binding capacity: purified PKC-δ, may be overestimated (longer colour development); for inhibition at 50 µM / inhibition at 100 µM / inhibition at 200 µM: read-out: calculated binding capacity (100-% n) after subtraction of the DMSO apparent binding capacity; for Affinity for PKC isoform δ: Purified isoform, Table 20; for targeting of / affinity for PKC-δ: purified isoform, Tables 14-19. On the set-up: key to Affinity for PKC isoform δ: —: no detectable affinity; Low to very low affinity at 10X or 20X or both PRE concentrations in at least one cell line in the cell extract assay; Low affinity in purified isoform assay.; Moderate affinity at 10X or 20X or both PRE concentrations in at least one cell line in the cell extract assay.; High affinity at 10X or 20X or both PRE concentrations in at least one cell line in the cell extract assay; High affinity in purified isoform assay. As to the method:
Peptides PRE 1, 2, 3, 4, 5, 6, 7, 8, 9, 10, 11, 12 and 13 (see Table 3) were tested for their ability to interfere with binding of PKC isoform-specific antibodies to their target PKC isoforms using a competitive binding assay and purified PKC isoforms.
Procedure: Competitive binding was assessed using a 96 well plate ELISA-based assay as described below.
Greiner 96 well ELISA plates were coated with the appropriate PKC isoform diluted in PBSN (PBS with Calcium/Magnesium+0.05% Sodium azide w/w). 50 μL/well at 250 ng/mL was used. Control wells contained PBSN only. Plates were incubated overnight at 4° C.
The plates were washed 3 times with 200 μL of dH2O per well, then 100 μL of blocking solution was added per well and the plate incubated for 1 h at 37° C. The washing steps with dH2O were repeated and 50 μL of the appropriate PRE solution (PRE stock solution [20 mM in DMSO] diluted in PBSN) was added and the plate incubated for 1 h at room temperature.
After incubation, 5 μL of 1.1:400 anti-PKC (isoform specific antibody) was added per well (to provide a final concentration of 1:4000). For PKC-epsilon, 1.1:800 dilution was used and for PKC-zeta a 1.1:100 dilution was used due to high and low binding affinity, respectively. The plates were then incubated 1 h at room temperature, followed by washing with dH2O as described above.
50 μL of 1:1000 dilution of Alkaline Phosphatase (AP) conjugated antibody (anti-rabbit for all except zeta, which was anti-goat) was then added and the plate incubated for 1 h at room temperature. Washing with dH2O was then repeated. Finally, 100 μL of pNPP solution in pNPP buffer (2 mM MgCl2, 100 mM Sodium bicarbonate in water, pH 9.8) was added to all wells and incubated for 8 minutes for α, βI, βII ε, and ζ, or for 15-20 mins for […] (until sufficient coloration is observed). The reaction was stopped by addition of Stop solution (2N NaOH) and the absorbance at 405 nm was read on a Galaxy Plate reader.
Controls were PKC without PRE; blank controls, and controls containing the final concentrations of DMSO used for solubilizing the PREs. The non-specific binding capacity related to DMSO was also measured.
The antibodies used were as follows: anti-PKC α (Cat. No. SC-208); anti-PKC βI (Cat. No. SC-209); anti-PKC βII (Cat. No. SC-210); anti-PKC δ (Cat. No. SC-213); anti-PKC ε (Cat. No. SC-214); anti-PKC ζ (Cat. No. SC-216-G) (all from Santa Cruz Biotechnology, Inc.). The AP-conjugated antibodies were obtained from Jackson Immuno Research Laboratories (West Grove, Pa.).
Calculations: The OD values measured at 405 nm represent the free PKC coated per well.
OD405 PKC alone−Blank OD405 of each sample=OD405 coated isoform
(OD405 of sample X/OD405 coated isoform)×100=% n that represents the percentage of X binding compared to control.
100-% n measures the relative binding capacity of X towards the tested isoform.
The apparent binding capacity of the DMSO samples was then subtracted from X binding capacity.
All measurements were made in triplicate and the values in the table represent the averaged calculated binding capacity values after subtraction of the DMSO apparent binding capacity (averaged from 12 values, respectively 10.80, 11.20 and 16.40 corresponding to the concentrations of DMSO used to dilute the […] at 200, 100 and 50 μM respectively). The results allow for quantitative comparison of the binding capacity of each PRE towards an individual isoform within each table, but not among isoforms due to differences in sensitivity of the specific antibodies toward the secondary antibody. This applies particularly to PKC-delta. As noted above, the colour development duration was increased 2-3 times and, as a result, the OD405 measurements may be overestimated for this isoform.

“Also recorded” adds a separate entry of the source.

Chain of PKC-δ (Q05655 whole entry, canonical isoform): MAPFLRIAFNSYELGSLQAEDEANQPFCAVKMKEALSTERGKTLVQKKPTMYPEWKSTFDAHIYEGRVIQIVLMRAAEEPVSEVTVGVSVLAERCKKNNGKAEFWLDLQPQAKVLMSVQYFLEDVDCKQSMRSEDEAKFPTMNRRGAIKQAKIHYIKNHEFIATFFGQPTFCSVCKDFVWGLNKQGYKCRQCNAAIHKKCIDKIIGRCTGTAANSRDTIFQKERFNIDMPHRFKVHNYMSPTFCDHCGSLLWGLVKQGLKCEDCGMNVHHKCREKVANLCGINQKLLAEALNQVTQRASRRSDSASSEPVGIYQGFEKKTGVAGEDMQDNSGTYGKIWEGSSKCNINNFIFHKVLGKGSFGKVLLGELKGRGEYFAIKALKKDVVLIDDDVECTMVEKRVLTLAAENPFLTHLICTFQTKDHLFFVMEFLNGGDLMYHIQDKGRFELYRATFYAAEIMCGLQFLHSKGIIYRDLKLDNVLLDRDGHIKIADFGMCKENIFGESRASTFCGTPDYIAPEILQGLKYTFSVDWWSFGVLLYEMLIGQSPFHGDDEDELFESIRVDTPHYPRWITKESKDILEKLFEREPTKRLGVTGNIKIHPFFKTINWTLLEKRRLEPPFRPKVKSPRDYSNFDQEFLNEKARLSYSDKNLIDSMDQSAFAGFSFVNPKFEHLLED

In the case of Ac-AKGIQEVKGGDAQNLIGISI-NH2 [PRE 3], the “Affinity for PKC isoform α” value on PKC-α was “H”. Moreover, on PKC-δ (PRE 50 μM), the inhibition at 50 µM is 48.3%. Moreover, the inhibition at 100 µM on PKC-δ (PRE 100 μM) was 56%. Besides, the inhibition at 200 µM on PKC-δ (PRE 200 μM) was 57%. In addition, on PKC-δ, the “Affinity for PKC isoform δ” value is “H” and the “targeting of / affinity for PKC-δ” value is reported as “targeted most strongly”.
Consider Ac-AKGIQEVKGGKDAQNLIGISI-NH2 [PRE 5], for which, at PKC-α, the “Affinity for PKC isoform α” value was “M”. Besides, the inhibition at 50 µM on PKC-δ (PRE 50 μM) is 0.2%. In addition, at PKC-δ (PRE 100 μM), the inhibition at 100 µM was 0%. Also, at PKC-δ (PRE 200 μM), the inhibition at 200 µM is 4.31%. At PKC-δ, the “Affinity for PKC isoform δ” value was “L”.
Consider Ac-ISIGILNQADK-NH2 [PRE 10], for which, in the assay with PKC-α, the “Affinity for PKC isoform α” value is on record as “H/L”. Moreover, the “calculated binding capacity (100-% n) after subtraction of the DMSO apparent binding capacity” value with PKC-δ (PRE 200 μM) is recorded as 9.47. Further, the “Affinity for PKC isoform δ” value in the assay with PKC-δ is “—”.
On to Ac-ISIGILQNADK-NH2 [PRE 7], for which, in the assay with PKC-α, the “Affinity for PKC isoform α” value is “L”. The “Affinity for PKC isoform δ” value with PKC-δ is on record as “—”.
For Ac-KDANQLIGISI-NH2 [PRE 6], in that order: “H/L” and “L”.
The corresponding values for Ac-KDAQNLI-NH2 [PRE 12] are “—” and “L”.
Consider “Ac-KDAQNLIGISI-NH2 [PRE 4, Ac-KDAQNLIGISI-NH2]”, for which the “Affinity for PKC isoform α” value on PKC-α is given as “H”. Besides, the “affinity for PKC-α” value on PKC-α (cell extracts) is listed as “strong affinity for PKC-α”. The inhibition at 50 µM on PKC-δ (PRE 50 μM) was 29.2%. In addition, on PKC-δ (PRE 100 μM), the inhibition at 100 µM was 30.7%. Further, the inhibition at 200 µM at PKC-δ (PRE 200 μM) is 17.3%. Besides, on PKC-δ, the “Affinity for PKC isoform δ” value was “H” and the “targeting of / affinity for PKC-δ” value is given as “targeted most strongly; also recorded: showed an affinity for PKC-6”.
With Ac-RDAQNLI-NH2 [PRE 13], in the assay with PKC-α, the “Affinity for PKC isoform α” value is “M/H”. The “Affinity for PKC isoform δ” value in the assay with PKC-δ is recorded as “L”.
With Ac-RDAQNLIGISI-NH2 [PRE 11], the “Affinity for PKC isoform α” value in the assay with PKC-α is recorded as “H/L”. Besides, in the assay with PKC-δ, the “Affinity for PKC isoform δ” value was “H” and the “targeting of / affinity for PKC-δ” value was “targeted most strongly”.
With Ac-isigilgnadk-NH2 [PRE 9], the “Affinity for PKC isoform α” value with PKC-α was “M/L”. Besides, the figures for the “calculated binding capacity (100-% n) after subtraction of the DMSO apparent binding capacity” value in the assay with PKC-δ (PRE 50 μM), with PKC-δ (PRE 100 μM) and with PKC-δ (PRE 200 μM) were 16.23, 19.27 and 9.95, respectively. In addition, the “Affinity for PKC isoform δ” value in the assay with PKC-δ was “L”.
Take ILEDKGGDAQNLIGISI [PRE 8]: in the assay with PKC-α, the “Affinity for PKC isoform α” value is on record as “M/L”. In addition, the “Affinity for PKC isoform δ” value in the assay with PKC-δ is given as “—”.
As for RRKKGGKDFVVKR [PRE 1], the “Affinity for PKC isoform α” value in the assay with PKC-α is listed as “H”. For the same substance, in the assay with PKC-δ, the “Affinity for PKC isoform δ” value is “H” and the “targeting of / affinity for PKC-δ” value was “targeted most strongly”.
